PMC10259393, “The structural basis of the multi-step allosteric activation of Aurora B kinase” (eLife, 2023)
One block for each molecule: values may come before it. Non-standard residues stand in square brackets, D forms with d. pS = N[C@@H](COP(=O)(O)O)C(=O)O

Legend:
[1] = target: IN-box (C-terminal part of INCENP) IN-box, 790-856; experiment: mass photometry at 10 nM complex; settings: reference: [Aurora B/IN-box]all-P, as purified; sites T248,S849,S850
[2] = target: T1, Aurora B (59-361 aa) from X. laevis, dephosphorylated, of the [Aurora B/IN-box]^IN-ΔC construct (X. laevis, UniProt Q6DE08 59-361); experiment: co-purification; purified complex after ligation with the synthetic peptide: Superdex S200 16/60, then Ni column by the 6xHis of the ligated IN-box, eluted with imidazole; settings: both partners purified
T1 construct: Aurora B kinase, Xenopus laevis, residues 59-361; Thr248 not phosphorylated; also called Aurora B of [Aurora B/IN-box]^IN-P; not shown: 6xHis, N-terminal, cleaved; GB1 domain of streptococcal protein G, N-terminal, cleaved

[3] = target: T2, Aurora B (59-361 aa) from X. laevis, phosphorylated at Thr248, of the [Aurora B/IN-box]^IN-ΔC construct (X. laevis, UniProt Q6DE08 59-361, phosphothreonine at 248); experiment: as above; settings: both partners purified
T2 construct: Aurora B kinase, Xenopus laevis, residues 59-361; also called Aurora B of [Aurora B/IN-box]^loop-P; not shown: 6xHis, N-terminal, cleaved; GB1 domain of streptococcal protein G, N-terminal, cleaved

other: complex molecular weight [1]: same; reference ~44
Molecule: Aurora B 60-361 [Aurora B/IN-box]no-P, λ-phosphatase treated

binding result [2]: binds
B1: Semisynthetic IN-box (790-858, Phe845Cys) phosphorylated at Ser849 and Ser850 with C-terminal 6xHis, as in [Aurora B/IN-box]^IN-P (domain or fragment, X. laevis)
chain: DESQPRKPIPAWASGNLLTQAIRQQYYKPIDVDRMYGTIDSPKLEELFNKSKPRYCKRT[pS][pS]AVWHSPPL-{H2N-H2N-H2N-H2N-H2N-H2N}
notes: INCENP, Xenopus laevis, IN-box residues 790-844; synthetic peptide, IN-box residues 845-858 of X. laevis INCENP with Cys in place of Phe845 (scar of the ligation), both serines of the TSS motif phosphorylated; also called IN-box of [Aurora B/IN-box]^IN-P; IN-box^Phe845Cys; source: IN-box^ΔC (E. coli, purified, C-terminal thioester) ligated with a synthetic phosphopeptide; purified (Superdex S200, …)

binding result [3]: binds
B2: Semisynthetic IN-box (790-858, Phe845Cys) with unphosphorylated TSS motif and C-terminal 6xHis, as in [Aurora B/IN-box]^loop-P (domain or fragment, X. laevis)
chain: DESQPRKPIPAWASGNLLTQAIRQQYYKPIDVDRMYGTIDSPKLEELFNKSKPRYCKRTSSAVWHSPPL
notes: INCENP, Xenopus laevis, IN-box residues 790-844; synthetic peptide, IN-box residues 845-858 of X. laevis INCENP with Cys in place of Phe845 (scar of the ligation); also called IN-box of [Aurora B/IN-box]^loop-P; IN-box^Phe845Cys; source: IN-box^ΔC (E. coli, purified, C-terminal thioester) ligated with a synthetic peptide; purified (Superdex S200, Ni column); not shown: 6xHis, C-terminal, kept
